Experimental data reported in article PMC6943137, “A novel 5′-hydroxyl dinucleotide hydrolase activity for the DXO/Rai1 family of enzymes”.

Biological target: T1, DXO (mouse, UniProt O70348 1-397)
T1 sequence: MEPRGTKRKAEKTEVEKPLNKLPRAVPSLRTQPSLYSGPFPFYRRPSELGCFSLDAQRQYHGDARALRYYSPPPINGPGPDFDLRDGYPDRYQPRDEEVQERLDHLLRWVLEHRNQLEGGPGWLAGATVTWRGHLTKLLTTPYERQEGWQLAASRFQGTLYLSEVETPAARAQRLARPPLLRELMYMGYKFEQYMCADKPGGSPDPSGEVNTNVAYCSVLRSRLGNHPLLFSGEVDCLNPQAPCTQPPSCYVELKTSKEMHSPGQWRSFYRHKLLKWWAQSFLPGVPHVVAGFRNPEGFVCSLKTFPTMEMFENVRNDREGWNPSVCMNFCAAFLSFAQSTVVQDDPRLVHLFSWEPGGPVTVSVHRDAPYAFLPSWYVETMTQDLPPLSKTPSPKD
Assay: X-ray crystallography, 2.0 A; Ca2+ (one ion); RNA occupancy ~80%, no hydrolysis in crystal; Crystal structure; crystallization buffer not in the material. Nuclease assays (turnover, not listed): 10 mM Tris pH 7.5, 50 mM KOAc, 2 mM Mg(OAc)2, 2 mM MnCl2, 1 mM DTT, 0.1 mM spermine
Conditions: protein: recombinant; tags: His-tag (pET28a); single strand

Binder: UUUUUU (XNA, phosphorothioate backbone; 5'-hydroxyl (5'-PO4 removed by CIP)) [5'-OH U(S)6 RNA]
- binding result: binds
